For experiment [1], the target named is UCH-L5 (full-length, wild type) (human).
Experiment [2] addresses UCH-L5_(M148A/F149A) (human).
The target in experiment [3] is RPN13 DEUBAD domain (aa 265-388) (human) (UniProt Q16186). Briefly: ITC.
The next experiment concerns the target Ub-LysGlyTAMRA (UniProt P0CG48). Briefly: fluorescence polarisation. For orientation: In fluorescence polarisation assays a small probe gives low polarisation when free and higher when bound to something large.

What is called Kd is the free concentration of one partner at which half of the binding sites on the other are occupied at equilibrium, for simple one-to-one binding. A high value points to weaker binding.

Sequence of UniProt P0CG48 (P0CG48 whole entry, looked up): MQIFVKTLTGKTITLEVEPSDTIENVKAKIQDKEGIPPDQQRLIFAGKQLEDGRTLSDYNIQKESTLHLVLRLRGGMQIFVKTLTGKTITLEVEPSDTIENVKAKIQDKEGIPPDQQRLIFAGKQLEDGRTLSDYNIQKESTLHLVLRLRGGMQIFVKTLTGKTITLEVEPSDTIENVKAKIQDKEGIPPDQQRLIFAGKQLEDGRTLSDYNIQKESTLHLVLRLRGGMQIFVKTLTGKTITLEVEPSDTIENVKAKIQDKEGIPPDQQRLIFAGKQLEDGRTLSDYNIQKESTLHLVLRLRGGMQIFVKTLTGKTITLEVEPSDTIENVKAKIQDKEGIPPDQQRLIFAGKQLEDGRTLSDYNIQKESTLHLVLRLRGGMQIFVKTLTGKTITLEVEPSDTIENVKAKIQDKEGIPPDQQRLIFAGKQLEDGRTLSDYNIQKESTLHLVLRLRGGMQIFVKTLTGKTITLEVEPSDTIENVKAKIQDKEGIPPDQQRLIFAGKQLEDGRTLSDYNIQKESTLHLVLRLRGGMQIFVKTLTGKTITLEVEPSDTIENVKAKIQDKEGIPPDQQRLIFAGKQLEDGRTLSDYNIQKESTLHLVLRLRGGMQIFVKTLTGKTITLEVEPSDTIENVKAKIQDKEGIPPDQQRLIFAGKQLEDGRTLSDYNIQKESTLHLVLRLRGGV

On to “RPN13 DEUBAD domain (aa 265-388) (from UniProt Q16186 265-388) (domain or fragment)”, for which the activation of Ub-AMC hydrolysis by the addition of RPN13^DEU in experiment [1] was determined as 7 fold; in experiment [2], 2.7 fold.

“UCH-L5 (full-length, wild type) (enzyme)” displayed a dissociation constant Kd in experiment [3] of 6 nM.

“UCH-L5 (C88A)/RPN13DEU complex (from UniProt Q9Y5K5-3;Q16186)” had a dissociation constant Kd in the experiment with Ub-LysGlyTAMRA of 2300 nM.

The values above are taken from article PMC4352763.
